Measured values reported in patent US20060024724A1.

Biological target: oncofetal fibronectin (human) (UniProt P02751)
Assay: lateral-flow sandwich test strip (mobile FDC-6 conjugate, goat polyclonal anti-fibronectin capture), TLiIQ reflectance reader, at 50 ng/ml oncofetal fibronectin

Chain of UniProt P02751 (P02751 32-2477): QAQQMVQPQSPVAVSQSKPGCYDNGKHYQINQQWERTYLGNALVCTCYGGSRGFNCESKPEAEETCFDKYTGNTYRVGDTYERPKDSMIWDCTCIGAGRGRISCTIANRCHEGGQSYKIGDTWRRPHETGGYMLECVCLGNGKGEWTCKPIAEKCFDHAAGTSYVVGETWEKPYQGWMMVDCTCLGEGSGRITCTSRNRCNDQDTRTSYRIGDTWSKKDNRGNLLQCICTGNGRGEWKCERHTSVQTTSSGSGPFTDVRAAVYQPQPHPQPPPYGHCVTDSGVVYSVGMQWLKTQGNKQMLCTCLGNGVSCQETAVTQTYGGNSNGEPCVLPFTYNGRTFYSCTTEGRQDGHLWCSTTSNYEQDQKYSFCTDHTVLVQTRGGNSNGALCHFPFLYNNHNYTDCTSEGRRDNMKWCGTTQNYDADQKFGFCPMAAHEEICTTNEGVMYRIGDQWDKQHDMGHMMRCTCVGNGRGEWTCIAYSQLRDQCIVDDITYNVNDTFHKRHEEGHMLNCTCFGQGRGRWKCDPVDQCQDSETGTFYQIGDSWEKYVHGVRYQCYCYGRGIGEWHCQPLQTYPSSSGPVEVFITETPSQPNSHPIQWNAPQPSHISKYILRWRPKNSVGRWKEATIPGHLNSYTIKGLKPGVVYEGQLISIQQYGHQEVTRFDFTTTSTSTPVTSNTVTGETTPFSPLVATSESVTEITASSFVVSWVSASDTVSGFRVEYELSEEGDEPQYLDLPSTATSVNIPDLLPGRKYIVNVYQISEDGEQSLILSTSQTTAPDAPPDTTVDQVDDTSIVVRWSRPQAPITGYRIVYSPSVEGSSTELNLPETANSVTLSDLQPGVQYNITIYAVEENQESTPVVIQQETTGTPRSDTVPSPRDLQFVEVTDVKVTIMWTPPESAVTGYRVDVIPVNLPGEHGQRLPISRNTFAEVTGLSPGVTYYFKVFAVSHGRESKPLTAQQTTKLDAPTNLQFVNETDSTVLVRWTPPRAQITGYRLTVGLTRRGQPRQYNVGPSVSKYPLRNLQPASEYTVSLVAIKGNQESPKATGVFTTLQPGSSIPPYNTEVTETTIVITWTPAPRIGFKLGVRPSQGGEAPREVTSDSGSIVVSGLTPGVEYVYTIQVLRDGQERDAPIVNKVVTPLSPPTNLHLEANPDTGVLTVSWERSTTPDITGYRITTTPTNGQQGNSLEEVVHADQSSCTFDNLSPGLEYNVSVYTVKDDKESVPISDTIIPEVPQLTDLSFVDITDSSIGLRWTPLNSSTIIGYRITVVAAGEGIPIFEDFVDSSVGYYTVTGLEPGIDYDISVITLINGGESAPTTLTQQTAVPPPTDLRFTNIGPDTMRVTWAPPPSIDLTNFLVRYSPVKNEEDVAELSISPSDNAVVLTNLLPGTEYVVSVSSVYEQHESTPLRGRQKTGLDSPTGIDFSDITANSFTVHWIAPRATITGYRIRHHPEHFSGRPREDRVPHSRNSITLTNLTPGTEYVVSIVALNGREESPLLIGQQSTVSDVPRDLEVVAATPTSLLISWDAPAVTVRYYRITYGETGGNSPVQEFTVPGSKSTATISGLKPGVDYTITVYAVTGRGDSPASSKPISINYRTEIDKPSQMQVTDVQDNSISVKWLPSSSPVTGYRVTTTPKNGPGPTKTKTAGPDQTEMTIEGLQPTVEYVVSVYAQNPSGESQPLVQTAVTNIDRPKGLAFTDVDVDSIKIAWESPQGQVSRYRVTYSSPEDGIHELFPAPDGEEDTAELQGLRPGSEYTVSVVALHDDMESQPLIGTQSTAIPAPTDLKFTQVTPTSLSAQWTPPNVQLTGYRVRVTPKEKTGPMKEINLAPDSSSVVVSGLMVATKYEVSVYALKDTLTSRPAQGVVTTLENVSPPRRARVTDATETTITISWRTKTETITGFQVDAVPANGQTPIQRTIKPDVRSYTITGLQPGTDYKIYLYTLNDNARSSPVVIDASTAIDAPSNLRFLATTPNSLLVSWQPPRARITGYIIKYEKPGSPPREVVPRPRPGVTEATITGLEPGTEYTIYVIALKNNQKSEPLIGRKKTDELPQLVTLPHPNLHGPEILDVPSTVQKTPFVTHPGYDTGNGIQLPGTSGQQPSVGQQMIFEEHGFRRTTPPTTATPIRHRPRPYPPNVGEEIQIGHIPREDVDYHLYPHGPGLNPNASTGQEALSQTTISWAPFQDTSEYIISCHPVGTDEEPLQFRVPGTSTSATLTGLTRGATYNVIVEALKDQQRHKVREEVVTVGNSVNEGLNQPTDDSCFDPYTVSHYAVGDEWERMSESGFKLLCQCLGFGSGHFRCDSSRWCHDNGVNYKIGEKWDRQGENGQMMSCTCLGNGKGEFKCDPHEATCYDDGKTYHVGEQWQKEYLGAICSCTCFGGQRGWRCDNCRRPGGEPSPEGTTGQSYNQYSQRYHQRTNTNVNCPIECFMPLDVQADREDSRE

reflectance signal: 0.315
Substance: FDC-6 monoclonal antibody (produced by hybridoma ATCC HB 9018)
